This passage reports collision cross section results from the supplement of paper PMC10598134.

The nature of the series: collision cross section of unmodified peptide (TIMS, N2, iRT-aligned); higher = larger / more extended gas-phase ion. On the procedure: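 Unmodified synthetic counterpart peptides (ProteomeTools / JPT), analysed by nanoLC-TIMS-QTOF (dda-PASEF). 1/K0 was aligned run-wise to spiked iRT peptides and converted to CCS in N2 (Mason-Schamp). Values are the mean of 1-3 technical replicates for the most abundant feature at each charge state. The same unmodified peptide is repeated across rows and is averaged.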

± gives the standard deviation.

As to FDDTNPEKEEAK, the collision cross section runs as follows: (charge state: 2) 396.22 ± 1.8 Å²; (charge state: 3) 501.37 ± 2.2 Å².

Regarding YIGTGHADTTK, the collision cross section is, setting by setting: (charge state: 2) 357.91 ± 0.48 Å²; (charge state: 3) 452.61 ± 1.1 Å².

For the substance VDGDTQTTVEK, for the setting “charge state: 2”, the collision cross section was 367.05 ± 2.3 Å².

Under “charge state: 2”, YTTNNSSEQR registered a collision cross section of 353.04 ± 0.15 Å².

Regarding LQNSYQPTNK, the collision cross section (charge state: 2) was found to be 358.91 ± 0.48 Å².

Take VPQAQPTKPALK: the collision cross section reads like this: (charge state: 2) 384.79 ± 0.67 Å²; (charge state: 3) 486.38 ± 2.7 Å².

In turn, LGVPGLPGYPGR yielded a collision cross section (charge state: 2) of 354.06 ± 0.41 Å².

Regarding VGVEAKQPNSAIR, the collision cross section by setting is: (charge state: 2) 404.68 ± 1.4 Å²; (charge state: 3) 493.5 ± 7.8 Å².

LVLPSQAQARLPSGEVVK: the collision cross section reads like this: (charge state: 2) 482.13 ± 2.1 Å²; (charge state: 3) 526.02 ± 0.85 Å².

On to TVTNAVVTVPAYFNDSQR, for which the collision cross section runs as follows: (charge state: 2) 471.11 ± 0.99 Å²; (charge state: 3) 576.65 ± 1.1 Å².

Take DESFLGKLGGTLAR: the collision cross section was 409.59 ± 1.4 Å² (charge state: 2) and 475.21 ± 2.7 Å² (charge state: 3).

Turning to DDSFLGKLGGTLAR, the collision cross section turned out to be 410.69 ± 1.4 Å² (charge state: 2) and 475.25 ± 2.7 Å² (charge state: 3).

As to GGFQNRGGGSGGGGNYR, the collision cross section runs as follows: (charge state: 2) 412.29 Å²; (charge state: 3) 474.43 ± 1.4 Å².

Take GGGGGRGGLHDFR: the collision cross section reads like this: (charge state: 2) 368.29 ± 0.36 Å²; (charge state: 3) 457.27 ± 2.8 Å².

Consider GGNFGGRGGYGGGGGGSR, for which the collision cross section was found to be 404.35 ± 1.4 Å² (charge state: 2) and 464.41 ± 2.6 Å² (charge state: 3).

In the case of DSRGGGGNFGPGPGSNFR, the collision cross section (charge state: 3) is given as 474.13 ± 0.75 Å².

For VSFLSALEEYTK, the collision cross section (charge state: 2) is recorded as 392.46 ± 0.78 Å².

Take AGQKLIDVNHYAK: the collision cross section runs as follows: (charge state: 2) 420.25 ± 2.7 Å²; (charge state: 3) 474.66 ± 4.5 Å².

Take VTPHPSPRGSPLPTPK: the collision cross section is, setting by setting: (charge state: 2) 427.24 Å²; (charge state: 3) 550.88 ± 0.55 Å².

Substance TVQGPPGEPGR registered a collision cross section (charge state: 2) of 344.87 ± 3.1 Å².

Substance TSSEASVSSSVAK yielded a collision cross section (charge state: 2) of 370.17 ± 0.67 Å².

As for AQPQDSRGGSK, the collision cross section turned out to be 349.19 ± 0.54 Å² (charge state: 2) and 421.45 ± 6.4 Å² (charge state: 3).

For LQLGTPPPLLAARLVPPR, the collision cross section (charge state: 3) was found to be 572.92 ± 0.68 Å².

YSRGAGLGFSTAPNK showed a collision cross section (charge state: 2) of 407.91 ± 1.8 Å² and a collision cross section (charge state: 3) of 476.78 ± 0.4 Å².

YEITEQR registered a collision cross section (charge state: 2) of 326.96 ± 0.72 Å².

LEENHYNTYISK: the collision cross section reads like this: (charge state: 2) 419.55 ± 1 Å²; (charge state: 3) 465.19 ± 1.2 Å².

As for GAPGPQGPPGPPGK, the collision cross section (charge state: 2) is on record as 357.97 ± 0.58 Å².

In turn, RGVGAGAIAK displayed a collision cross section (charge state: 2) of 327.01 ± 0.73 Å².

As to IFDSEEILAGYK, the collision cross section (charge state: 2) came out at 391.02 ± 0.47 Å².

As for YEATSVQQK, the collision cross section (charge state: 2) is reported as 342.24 ± 1.4 Å².

For GRGVGSPEPGPTAPYLGR, the collision cross section is given as 432.42 Å² (charge state: 2) and 517.8 ± 0.62 Å² (charge state: 3).

Consider ALYETELADAR, for which the collision cross section (charge state: 2) turned out to be 385.99 ± 0.47 Å².

Take GRGTGEAEEEYVGPR: the collision cross section worked out at 410.08 ± 0.96 Å² (charge state: 2) and 491.56 ± 0.9 Å² (charge state: 3).

As to GFPGAPGLPGLK, the collision cross section (charge state: 2) is on record as 357.61 ± 0.4 Å².

GSIGFPGFPGANGEKGGR showed a collision cross section (charge state: 3) of 519.37 ± 1.2 Å².

On to IYHPNVDK, for which the collision cross section turned out to be 337.77 ± 0.73 Å² (charge state: 2) and 425.77 ± 2 Å² (charge state: 3).

In turn, VLPSITTEILK returned a collision cross section (charge state: 2) of 373.13 ± 0.14 Å².

In the case of LTEKELAEAASK, the collision cross section was found to be 387.7 ± 1 Å² (charge state: 2) and 479.05 ± 4.3 Å² (charge state: 3).

Under “charge state: 2”, GYDVIAQAQSGTGK came in with a collision cross section of 388.46 ± 0.16 Å².

As for QQETAAAETETR, the collision cross section is 373.98 ± 0.14 Å² (charge state: 2) and 456.85 ± 0.22 Å² (charge state: 3).

As to GEQGEPGAPGIR, the collision cross section (charge state: 2) was found to be 347.53 ± 0.79 Å².

Turning to DYSAPVNFISAGLKK, the collision cross section (charge state: 2) amounted to 443.09 ± 2.3 Å² and the collision cross section (charge state: 3) is 512.68 ± 2.7 Å².

As for LPTTAASTPDAVDK, for the setting “charge state: 2”, the collision cross section worked out at 396.7 ± 0.66 Å².

Regarding QGNAVTLGDYYQGR, where the note is “charge state: 2”, the collision cross section turned out to be 415.78 ± 0.66 Å².

Turning to SSDLTDRVK, the collision cross section is, setting by setting: (charge state: 2) 344.22 ± 0.14 Å²; (charge state: 3) 424.95 ± 0.87 Å².

For the setting “charge state: 2”, IYELAAGGTAVGTGLNTR came in with a collision cross section of 443.72 ± 1 Å².

GGQGPPGPQGPIGYPGPR: the collision cross section came out at 419.74 ± 1 Å² (charge state: 2) and 520.51 ± 0.87 Å² (charge state: 3).

Consider PSIHGGSGGRGVSVSSAR, for which the collision cross section (charge state: 3) is on record as 503.12 ± 0.69 Å².

As for GEVQVSDKER, the collision cross section is, setting by setting: (charge state: 2) 363.87 ± 0.37 Å²; (charge state: 3) 439.27 ± 4.5 Å².

KVTLSVLSR: the collision cross section is 348.44 ± 0.58 Å² (charge state: 2) and 443.31 ± 0.22 Å² (charge state: 3).

For the setting “charge state: 2”, LSITGTYDLK gave a collision cross section of 371.61 ± 0.6 Å².

GFPGAPGLPGLKGHR came in with a collision cross section (charge state: 3) of 475.59 ± 1.2 Å².

TGPPGSTGSRGPPGPPGR came in with a collision cross section (charge state: 3) of 459.15 ± 0.33 Å².

Take VQFAPEK: the collision cross section (charge state: 2) was 317.04 ± 1.1 Å².

LLFSNTAAQKLR: the collision cross section reads like this: (charge state: 2) 416.62 ± 2.1 Å²; (charge state: 3) 485.85 ± 3.4 Å².

Turning to GGGGGGGGGAPRGR, the collision cross section came out at 341.22 ± 1.4 Å² (charge state: 2) and 426.09 ± 5.4 Å² (charge state: 3).

PRGVISTPVIR: the collision cross section is, setting by setting: (charge state: 2) 371.76 ± 0.55 Å²; (charge state: 3) 450.44 ± 3.9 Å².

Take TGGTQTDLFTCGKCK: the collision cross section is 431.32 ± 1.2 Å² (charge state: 2) and 479.49 ± 5.3 Å² (charge state: 3).

Consider IEDEQALGSQLQK, for which the collision cross section (charge state: 2) is listed as 401.79 ± 0.14 Å² and the collision cross section (charge state: 3) was 493.77 ± 0.29 Å².

For the substance IHNAENIQPGEQKYEYK, the collision cross section runs as follows: (charge state: 2) 475.76 ± 2.4 Å²; (charge state: 3) 534.89 ± 9.6 Å².

In turn, GPQNATDSYVHK displayed a collision cross section (charge state: 2) of 381.43 ± 1.1 Å² and a collision cross section (charge state: 3) of 445.36 ± 1.8 Å².

For the substance VDIDVPDVNIEGPDAKLK, the collision cross section reads like this: (charge state: 2) 470.4 ± 2.9 Å²; (charge state: 3) 542.58 ± 2 Å².

Consider YILIPASQQPK, for which the collision cross section (charge state: 2) was found to be 375.08 ± 0.48 Å².

On to DKALPLEAEVAPVK, for which the collision cross section runs as follows: (charge state: 2) 407.43 ± 3.2 Å²; (charge state: 3) 507.63 ± 4.6 Å².

Turning to TLHLSHLNRFPAR, for the setting “charge state: 3”, the collision cross section was determined as 511.92 ± 1.2 Å².

Consider GERGPPGPPGK, for which the collision cross section reads like this: (charge state: 2) 325.96 ± 0.79 Å²; (charge state: 3) 437.43 ± 1.2 Å².

On to FGTINIVHPKLGSYTK, for which the collision cross section is, setting by setting: (charge state: 2) 468.97 ± 3 Å²; (charge state: 3) 531.6 ± 4.8 Å².

In the case of VGYPGPSGPLGARGIPGIK, the collision cross section was 447.51 ± 0.68 Å² (charge state: 2) and 562.22 ± 0.35 Å² (charge state: 3).

As for STLEEPNLQPLQR, the collision cross section (charge state: 2) worked out at 408.53 ± 0.66 Å².

Regarding TSAYGPPTR, the collision cross section (charge state: 2) was 322.86 ± 1.6 Å².

With PANEKATDDYHYEK, the collision cross section by setting is: (charge state: 2) 416.54 ± 2.6 Å²; (charge state: 3) 493.57 ± 4.5 Å².

SGNLTEDDKHNNAK: the collision cross section reads like this: (charge state: 2) 412.58 ± 1.5 Å²; (charge state: 3) 490.18 ± 3.5 Å².

Turning to GRGGPGPAQR, the collision cross section was 323.16 ± 0.71 Å² (charge state: 2) and 428.92 ± 5.9 Å² (charge state: 3).

On to GSLEKGSPEDK, for which the collision cross section reads like this: (charge state: 2) 350.53 ± 1.5 Å²; (charge state: 3) 434.36 ± 3.6 Å².

Turning to VNIGQGSHPQKVK, the collision cross section came to 416.89 ± 2.1 Å² (charge state: 2) and 469.44 ± 3.7 Å² (charge state: 3).

The substance DVFISAAER displayed a collision cross section (charge state: 2) of 340.13 ± 0.68 Å².

Turning to TTEETSKPK, the collision cross section is, setting by setting: (charge state: 2) 341.31 ± 0.82 Å²; (charge state: 3) 430.05 ± 3.7 Å².

ITESVAETAQTIK returned a collision cross section (charge state: 2) of 394.65 ± 0.14 Å².

As for DTGEKLTVAENEAETK, the collision cross section reads like this: (charge state: 2) 436.86 ± 2.7 Å²; (charge state: 3) 520.99 ± 1.8 Å².

GLQGPPGK gave a collision cross section (charge state: 2) of 292.79 ± 0.8 Å².

Substance GGPGAPGAPGPK displayed a collision cross section (charge state: 2) of 323.76 ± 0.58 Å².

As for VTGGIFSVTK, the collision cross section (charge state: 2) stood at 335.98 ± 0.58 Å².

For LYDIDVAK, the collision cross section (charge state: 2) came out at 334.71 ± 0.73 Å².

IISSIEQKEENK: the collision cross section is recorded as 409.72 ± 2.2 Å² (charge state: 2) and 479.1 ± 6.7 Å² (charge state: 3).

The substance SQAGASELGPFSDPR returned a collision cross section (charge state: 2) of 396.36 ± 0.66 Å².

DYILEGEPGK showed a collision cross section (charge state: 2) of 348.93 ± 0.15 Å².

For the setting “charge state: 2”, SVGGSGGGSFGDNLVTR displayed a collision cross section of 413.69 ± 1.1 Å².

For the setting “charge state: 2”, FGYVDFESAEDLEK came in with a collision cross section of 428.91 ± 0.24 Å².

Consider LAPEYEAAATR, for which the collision cross section runs as follows: (charge state: 2) 358.54 ± 0.15 Å²; (charge state: 3) 432.76 ± 0.89 Å².

Consider GYLGPEQLPDCLK, for which, under “charge state: 2”, the collision cross section was 401.23 ± 0.16 Å².
